± gives the uncertainty stated by the source.
test: protein stability index of a GFP-peptide fusion (yeast GPS) (PSI 1-4); higher = more stable; sorted into four equal gates, so the index is relative within each strain; details: ubr1∆
Procedure, shortened: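 For each peptide, the protein stability index sums the read frequency in every gate after multiplying it by the gate number. Read frequencies came from plasmids that were PCR-amplified from each gate and Illumina-sequenced, with reads assigned to strains by barcodes. The gates were four equal bins of GFP/Cherry fluorescence ratio applied to mid-log yeast in leucine-free medium carrying a pooled library of tiled 17-residue yeast protein peptides fused downstream of GFP on a Cherry-expressing plasmid.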

Q: Which protein stability index does the source give for RFSPDEDFEHNNLSSMN [MCD1] here?
A: 3.18 ± 0.074

Q: For RFVMPNQLLAALVAYTP [RRP6], which protein stability index is on record?
A: 1.71 ± 0.032

Q: With RFYELEESLTVLNCLRT [YJR042W/NUP85] as the sequence, how does the protein stability index read?
A: 2.62 ± 0.11

Q: Which protein stability index does the source give for RGAWGKPHGLAARVDIG [RPL10] here?
A: 2.35 ± 0.037

Q: Which protein stability index does the source give for RGKDGKLHVAAKLPGHK [YGL100W/SEH1] here?
A: 2.7 ± 0.16

Q: Which protein stability index does the source give for RGTDIDRINYTETALMN [SRB5] here?
A: 2.73 ± 0.12

Q: With RGVTKVGFGESNFTSII [SMC1] as the sequence, how does the protein stability index read?
A: 3.08 ± 0.08

Q: Which protein stability index does the source give for RHIKSKHEDLSLEQRQE [RPN4] here?
A: 3.03 ± 0.066

Q: With RHTTGTGRMRYLKHVSR [RPL37A] as the sequence, how does the protein stability index read?
A: 3.1 ± 0.11

Q: For RIANIEQNHLDNNYNTA [YDL088C/ASM4], which protein stability index is on record?
A: 3.03 ± 0.064

Q: With RIGVLQARMMQQQSADH [NSL1] as the sequence, how does the protein stability index read?
A: 2.96 ± 0.042

Q: With RIHRLARYYRTVAVLPP [RPS13] as the sequence, how does the protein stability index read?
A: 2.11 ± 0.046

Q: For RIHVNPSYYGVRDTSPH [BRR2], which protein stability index is on record?
A: 1.9 ± 0.058

Q: With RIKEMYWKLWIDEPFNL [FAS1] as the sequence, how does the protein stability index read?
A: 2.91 ± 0.075

Q: For RILKNVSPNDNNSANNN [YMR153W/NUP53], which protein stability index is on record?
A: 2.59 ± 0.044

Q: For RILNFFDKNTKTTPNTA [YMR153W/NUP53], which protein stability index is on record?
A: 2.43 ± 0.047

Q: For RINSTDEDLHEFQIEDA [SRB8], which protein stability index is on record?
A: 3.22 ± 0.2

Q: Which protein stability index does the source give for RITDASLFQLSKLGKNL [GRR1] here?
A: 2.51 ± 0.036

Q: For RITKSNEKSQAEQEKAK [LRP1], which protein stability index is on record?
A: 1.25 ± 0.14

Q: With RKDKDAKFRLILIESRI [RPS13] as the sequence, how does the protein stability index read?
A: 2.57 ± 0.11

Q: Which protein stability index does the source give for RKEWFDIKAPSTFENRN [RPS1A] here?
A: 3.02 ± 0.06

Q: For RKIKRLEKFLQGRDTSK [SRP72], which protein stability index is on record?
A: 2.76 ± 0.048

Q: With RKPMGKRINFEKIKDIH [POP1] as the sequence, how does the protein stability index read?
A: 2.87 ± 0.038

Q: With RKTLKEKAIPKDQRATT [RPO26] as the sequence, how does the protein stability index read?
A: 3.31 ± 0.07

Q: For RLAEFKRRKLDLNNAVQ [SMC4], which protein stability index is on record?
A: 2.96 ± 0.078

Q: Which protein stability index does the source give for RLANLIDYKLRVLTQDG [SMB1] here?
A: 2.79 ± 0.047

Q: For RLGSEADAKAFLDSMAQ [FAS2], which protein stability index is on record?
A: 3.33 ± 0.11

Q: For RLLAKDAMIAQRSKKIQ [DIS3], which protein stability index is on record?
A: 1.59 ± 0.069

Q: Which protein stability index does the source give for RLLEKSELPDIYSRDIG [SNF2] here?
A: 3.21 ± 0.17

Q: Which protein stability index does the source give for RLQFAQGSVRRLTVSAR [QCR2] here?
A: 1.14 ± 0.073

Q: Which protein stability index does the source give for RLQQQQAQAQAQANNNN [GAL11] here?
A: 2.04 ± 0.06

Q: Which protein stability index does the source give for RMAKLCARFLGNRGFSI [RPO31] here?
A: 2.93 ± 0.2

Q: Which protein stability index does the source give for RMKQYLKTKLLEEVEGS [RPB7] here?
A: 3.24 ± 0.13

Q: With RMVRSIMWQLLDGVSYL [SSN3] as the sequence, how does the protein stability index read?
A: 1.34 ± 0.1

Q: For RNARAARAAKIAPRPLD [RPL13B], which protein stability index is on record?
A: 2.45 ± 0.056

Q: For RNESLKNNSSIRNVIMS [SRB8], which protein stability index is on record?
A: 2.09 ± 0.039

Q: Which protein stability index does the source give for RNLDSATLKEIKSIIEQ [SMC3] here?
A: 3.21 ± 0.068

Q: With RNNSKSVLLKKLGSVRV [SRP72] as the sequence, how does the protein stability index read?
A: 1.69 ± 0.087

Q: For RNQRKGAGSIFTSHTRL [RPL2A], which protein stability index is on record?
A: 3.09 ± 0.059

Q: For RNSVKLLSKLLLKHPFK [YCS4], which protein stability index is on record?
A: 2.07 ± 0.04

Q: For RPLQKIMLLQLELGSCF [SIN4], which protein stability index is on record?
A: 1.42 ± 0.061

Q: For RPYGVGLLIIGYDKSGA [PRE5], which protein stability index is on record?
A: 1.06 ± 0.12

Q: Which protein stability index does the source give for RQGLIHQGSGGSVMSAS [SMC3] here?
A: 2.69 ± 0.067

Q: With RQGRSNRRGMLALSGTS [SNF5] as the sequence, how does the protein stability index read?
A: 2.74 ± 0.051

Q: Which protein stability index does the source give for RQILFKYPMYMQLEEEL [MED6] here?
A: 1.72 ± 0.062

Q: With RQKKKPTSAQKSAVSHA [IRR1] as the sequence, how does the protein stability index read?
A: 1.56 ± 0.15

Q: For RQLAGAIGYEPLSLTHR [DIS3], which protein stability index is on record?
A: 2.93 ± 0.041

Q: For RQSKSSGKSNTSNDASN [ITC1], which protein stability index is on record?
A: 3.22 ± 0.076

Q: Which protein stability index does the source give for RQVYKPVLDNPFTNEAH [POP3] here?
A: 2.88 ± 0.04

Q: Which protein stability index does the source give for RRDDEVLVVRGSKKGQE [RPL26A] here?
A: 3.57 ± 0.085

Q: Which protein stability index does the source give for RREFKQYSLERNSPFWW [PRP8] here?
A: 3.19 ± 0.14

Q: With RRFKNGFQTGSAKATSA [RPL37B] as the sequence, how does the protein stability index read?
A: 3.18 ± 0.06

Q: With RRKDTSMVLFFVCLSCS [RPB9] as the sequence, how does the protein stability index read?
A: 1.38 ± 0.039

Q: For RRREQTTYSVDDYYKEI [ISW2], which protein stability index is on record?
A: 2.87 ± 0.044

Q: With RRSLKKQGRIKNATEEL [CSN12] as the sequence, how does the protein stability index read?
A: 3.57 ± 0.066

Q: For RSATGAKRAQFRKKRKF [RPS8A], which protein stability index is on record?
A: 2.68 ± 0.073

Q: For RSKGKQNRPYNHPELQG [RPC17], which protein stability index is on record?
A: 1.94 ± 0.053

Q: For RSLEKVNNSVSKTGSVD [SSN2], which protein stability index is on record?
A: 3.37 ± 0.11

Q: With RSMVRKWQTLIEANVTV [RPS1A] as the sequence, how does the protein stability index read?
A: 2.24 ± 0.041

Q: Which protein stability index does the source give for RSNKIKVVKTPGGILRA [RPL34A] here?
A: 2.2 ± 0.041

Q: Which protein stability index does the source give for RSPVFALNMLPSEILHL [GRR1] here?
A: 2.19 ± 0.028

Q: For RSSRLHIVYSLLVNPDI [YML103C/NUP188], which protein stability index is on record?
A: 2.26 ± 0.05

Q: For RSSYMLELVNTPLTENI [YCG1], which protein stability index is on record?
A: 2.91 ± 0.084

Q: For RSTKDMIDAVFEQDSHL [SNF6], which protein stability index is on record?
A: 3.14 ± 0.058

Q: Which protein stability index does the source give for RTDATFIRVIGSELVQK [RPT1] here?
A: 2.98 ± 0.051

Q: For RTLRRKGDINPEVSMIR [RPB2], which protein stability index is on record?
A: 3.12 ± 0.076

Q: For RTLTAVHDKILEDLVFP [RPS7A], which protein stability index is on record?
A: 3.25 ± 0.098

Q: With RTSTRGRGRGRGRGRGR [SNF2] as the sequence, how does the protein stability index read?
A: 3.08 ± 0.15

Q: Which protein stability index does the source give for RTYSKTYSTPKRPYESS [RPS9A] here?
A: 2.53 ± 0.043

Q: Which protein stability index does the source give for RVERSSRSTDNFHNSKK [RRI1] here?
A: 3.08 ± 0.057

Q: With RVIDDNNRRRSRKRGGE [SIR3] as the sequence, how does the protein stability index read?
A: 3.46 ± 0.084

Q: Which protein stability index does the source give for RVISEYYSRITLLRLNE [RPN5] here?
A: 1.87 ± 0.068

Q: With RVLEIQTSLVRMFEKNV [SKI6] as the sequence, how does the protein stability index read?
A: 3.12 ± 0.047

Q: With RVSKDKKSGSLTFNSKN [FAS2] as the sequence, how does the protein stability index read?
A: 3.18 ± 0.074

Q: With RVTGGMKVKADRDESSP [RPS14A] as the sequence, how does the protein stability index read?
A: 3.26 ± 0.05

Q: With RYEEFADKVKLGRVRNH [RPC40] as the sequence, how does the protein stability index read?
A: 2.96 ± 0.056

Q: Which protein stability index does the source give for RYLDNLKQEIDRGLSIK [SNU114] here?
A: 2.97 ± 0.082

Q: Which protein stability index does the source give for RYNGGNDNIGANRSRFN [SMB1] here?
A: 3.35 ± 0.08

Q: For RYRLLSDVSDFEGWGHE [RPN1], which protein stability index is on record?
A: 2.83 ± 0.12

Q: With RYSNLVCKKADVDLHKR [RPS18A] as the sequence, how does the protein stability index read?
A: 2.95 ± 0.083

Q: For SAAASESDVAKQLASFG [RPL16B], which protein stability index is on record?
A: 2.42 ± 0.027

Q: For SAAGMTAAIDSVVSQIE [FAS1], which protein stability index is on record?
A: 2.81 ± 0.11

Q: With SAAMSIDKLSDVVMKAT [PRP8] as the sequence, how does the protein stability index read?
A: 2.37 ± 0.042

Q: With SAASIPPQQTYHFPIFN [RPN4] as the sequence, how does the protein stability index read?
A: 2.68 ± 0.031

Q: With SADREIQRTLMELLTQM [RPT4] as the sequence, how does the protein stability index read?
A: 3.02 ± 0.095

Q: For SALQQIMYQQMLKYRRL [SNF2], which protein stability index is on record?
A: 1.35 ± 0.029

Q: Which protein stability index does the source give for SATFLRIVGSELIQKYL [RPT2] here?
A: 1.28 ± 0.051

Q: For SAVVGPNGSGKSNVIDS [SMC4], which protein stability index is on record?
A: 2.84 ± 0.033

Q: For SCAIHARIVRVRSREDR [RPS26A], which protein stability index is on record?
A: 2.62 ± 0.089

Q: With SDDDNIGQSEELSDKEI [ISW2] as the sequence, how does the protein stability index read?
A: 3.41 ± 0.12

Q: Which protein stability index does the source give for SDKIPYVAPTKKEYIEL [SRB4] here?
A: 2.8 ± 0.12

Q: With SDLINKDLVKNNVSFNA [FAS1] as the sequence, how does the protein stability index read?
A: 2.26 ± 0.053

Q: Which protein stability index does the source give for SDPVCLFVCNKDPDVPL [POP3] here?
A: 2.52 ± 0.081

Q: For SDRREHDEKLSDELHNQ [LIN1], which protein stability index is on record?
A: 2.89 ± 0.16

Q: With SDSIEKIVEIDRHIGCA [PUP2] as the sequence, how does the protein stability index read?
A: 2.82 ± 0.19

Q: Which protein stability index does the source give for SDSYKVSLQNFSSSVSL [RRP40] here?
A: 1.91 ± 0.037

Q: With SEDDSESGKVFIGRLPI [RPB2] as the sequence, how does the protein stability index read?
A: 3.29 ± 0.043

Q: With SEGFEPTFSTHAQLLLS [PRP8] as the sequence, how does the protein stability index read?
A: 1.97 ± 0.034

Q: With SEISIIDATLKEELLRD [RRP45] as the sequence, how does the protein stability index read?
A: 2.83 ± 0.11

Q: For SEKGFSKEQIHGSIIIL [YCS4], which protein stability index is on record?
A: 2.73 ± 0.087

Q: Which protein stability index does the source give for SEKKDTDGADENVQIGE [SRB4] here?
A: 3.06 ± 0.18

Q: With SEVGDAFIFGLQDELKE [SMC3] as the sequence, how does the protein stability index read?
A: 3.25 ± 0.072
